The series concerns Escherichia coli TOP10. The series is described as follows: shrunken log2 fold change of peptide-encoding DNA abundance (4.5 h post-induction vs induction); higher = less antimicrobial activity (less host growth inhibition). Conditions: time post-induction: 4.5 h; library: site-saturation at positions 5, 18, 19, 20.
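Also: peptides expressed intracellularly from a pBAD plasmid library in pooled LB shake-flask culture, induced with 0.3% L-arabinose, DNA abundance read by NGS, three biological replicates, DESeq2 with apeglm shrinkage.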

As to RRIRWRPPRLPRPRPRPYRNPRP, the “shrunken log2 fold change” value is -0.552.
As for RRIRKRPPRLPRPRPRPAFWPRP, the figure is 0.625; as for RRIRARPPRLPRPRPRPRSTPRP, 0.295.
As for RRIRFRPPRLPRPRPRPACTPRP, the figure is -0.148; as for RRIRFRPPRLPRPRPRPKGGPRP, 0.00425.
As for RRIRPRPPRLPRPRPRPIGEPRP, the figure is -0.0647; as for RRIRQRPPRLPRPRPRPRYCPRP, -0.143.
Regarding RRIRWRPPRLPRPRPRPERFPRP, the “shrunken log2 fold change” value is -0.0212.
As for RRIRMRPPRLPRPRPRPWKAPRP, the “shrunken log2 fold change” value was 0.0518.
The figure for RRIRERPPRLPRPRPRPFWKPRP is -0.125; for RRIRHRPPRLPRPRPRPEGYPRP it is -0.124; for RRIRRRPPRLPRPRPRPVTDPRP it is 0.0723.
Take RRIRWRPPRLPRPRPRPVFIPRP: the “shrunken log2 fold change” value is -0.22.
The figure for RRIRPRPPRLPRPRPRPFNTPRP is 0.39; for RRIRDRPPRLPRPRPRPHTIPRP it is -0.351.
For the sequence RRIRWRPPRLPRPRPRPFSDPRP, the “shrunken log2 fold change” value is -0.0111.
RRIRIRPPRLPRPRPRPCCLPRP: the “shrunken log2 fold change” value was -0.478.
As for RRIRYRPPRLPRPRPRPGKIPRP, the figure is -0.524; as for RRIRSRPPRLPRPRPRPSAHPRP, 0.0639.
The figure for RRIRWRPPRLPRPRPRPNHTPRP is -0.323.
As for RRIRFRPPRLPRPRPRPEDRPRP, the “shrunken log2 fold change” value is 0.045.
As for RRIRIRPPRLPRPRPRPVAVPRP, the figure is -0.104.
Regarding RRIRIRPPRLPRPRPRPMESPRP, the “shrunken log2 fold change” value was -0.00136.
Take RRIRARPPRLPRPRPRPVHRPRP: the “shrunken log2 fold change” value is -0.0852.
The figure for RRIRWRPPRLPRPRPRPMKQPRP is -0.208; for RRIRTRPPRLPRPRPRPSCEPRP it is -0.252.
As for RRIRLRPPRLPRPRPRPPYWPRP, the figure is 0.106; as for RRIRFRPPRLPRPRPRPCEPPRP, 0.0391; as for RRIRIRPPRLPRPRPRPHCCPRP, -0.642.
As for RRIRERPPRLPRPRPRPNSSPRP, the figure is -0.494.
Turning to RRIRQRPPRLPRPRPRPGWFPRP, the “shrunken log2 fold change” value is 0.209.
The figure for RRIRARPPRLPRPRPRPVWRPRP is 0.873; for RRIRFRPPRLPRPRPRPCRKPRP it is 0.0312; for RRIRCRPPRLPRPRPRPCHHPRP it is -0.332.
The figure for RRIRLRPPRLPRPRPRPRNKPRP is -0.156; for RRIRKRPPRLPRPRPRPWFKPRP it is -0.0948; for RRIRYRPPRLPRPRPRPSHHPRP it is -1.2.
For RRIRTRPPRLPRPRPRPRYEPRP, the “shrunken log2 fold change” value was -0.0806.
The figure for RRIRDRPPRLPRPRPRPNVEPRP is 0.119.
For the sequence RRIRWRPPRLPRPRPRPLCMPRP, the “shrunken log2 fold change” value was -0.177.
Consider RRIRTRPPRLPRPRPRPEFTPRP, for which the “shrunken log2 fold change” value is 0.016.
The figure for RRIRRRPPRLPRPRPRPVKCPRP is 0.23; for RRIRGRPPRLPRPRPRPPPDPRP it is 1.37; for RRIRWRPPRLPRPRPRPKKGPRP it is 0.22.
The figure for RRIRCRPPRLPRPRPRPAWKPRP is 0.0545.
With RRIRYRPPRLPRPRPRPNLYPRP, the “shrunken log2 fold change” value was -0.658.
As for RRIRNRPPRLPRPRPRPKRQPRP, the figure is -0.0692; as for RRIRCRPPRLPRPRPRPPTWPRP, 0.0486.
As to RRIRKRPPRLPRPRPRPYVSPRP, the “shrunken log2 fold change” value was -0.438.
The figure for RRIRHRPPRLPRPRPRPVIHPRP is -0.283; for RRIRERPPRLPRPRPRPQGQPRP it is -0.0238.
The figure for RRIRWRPPRLPRPRPRPQKGPRP is -0.214.
RRIRNRPPRLPRPRPRPRPIPRP: the “shrunken log2 fold change” value was 0.333.
The figure for RRIRGRPPRLPRPRPRPYQDPRP is 0.0178; for RRIRIRPPRLPRPRPRPSFLPRP it is -1.11; for RRIRCRPPRLPRPRPRPPGDPRP it is 0.346.
Turning to RRIRERPPRLPRPRPRPQGCPRP, the “shrunken log2 fold change” value is -0.0179.
As for RRIRHRPPRLPRPRPRPWCIPRP, the figure is -0.228; as for RRIRGRPPRLPRPRPRPSDWPRP, 0.251; as for RRIRKRPPRLPRPRPRPLSQPRP, 0.028.
The figure for RRIRRRPPRLPRPRPRPVGKPRP is -0.105.
As for RRIRGRPPRLPRPRPRPEDCPRP, the “shrunken log2 fold change” value stood at 0.874.
Consider RRIRFRPPRLPRPRPRPWCTPRP, for which the “shrunken log2 fold change” value is -0.288.
As to RRIRFRPPRLPRPRPRPTDIPRP, the “shrunken log2 fold change” value was found to be 0.0284.
As for RRIRERPPRLPRPRPRPFRNPRP, the figure is -0.105; as for RRIRNRPPRLPRPRPRPPMKPRP, -0.216; as for RRIRTRPPRLPRPRPRPDFPPRP, -0.178.
As for RRIRPRPPRLPRPRPRPRRQPRP, the figure is 0.673; as for RRIRYRPPRLPRPRPRPVTPPRP, -0.118.
The figure for RRIRERPPRLPRPRPRPLSWPRP is 0.04; for RRIRCRPPRLPRPRPRPCAQPRP it is 0.101; for RRIRYRPPRLPRPRPRPLEWPRP it is 0.00157.
Consider RRIRTRPPRLPRPRPRPCVTPRP, for which the “shrunken log2 fold change” value was -0.208.
As for RRIRNRPPRLPRPRPRPPGCPRP, the figure is 0.109.
As to RRIRIRPPRLPRPRPRPFCVPRP, the “shrunken log2 fold change” value was -0.713.
RRIRNRPPRLPRPRPRPALLPRP: the “shrunken log2 fold change” value is 0.504.
Consider RRIRERPPRLPRPRPRPFPAPRP, for which the “shrunken log2 fold change” value was -0.0357.
As for RRIRVRPPRLPRPRPRPQEPPRP, the figure is 0.0426; as for RRIRCRPPRLPRPRPRPPQCPRP, 0.182; as for RRIRWRPPRLPRPRPRPVDMPRP, -0.0613.
Consider RRIRFRPPRLPRPRPRPDDQPRP, for which the “shrunken log2 fold change” value was -0.151.
The figure for RRIRQRPPRLPRPRPRPYDFPRP is -0.543.
On to RRIRPRPPRLPRPRPRPWPKPRP, for which the “shrunken log2 fold change” value is -0.0311.
On to RRIRRRPPRLPRPRPRPLENPRP, for which the “shrunken log2 fold change” value came to 0.194.
With RRIRDRPPRLPRPRPRPEEIPRP, the “shrunken log2 fold change” value is -0.0062.
The figure for RRIRGRPPRLPRPRPRPACVPRP is 0.81; for RRIRRRPPRLPRPRPRPHTWPRP it is 0.0615; for RRIRYRPPRLPRPRPRPLNMPRP it is -1.33.
As for RRIRIRPPRLPRPRPRPKKCPRP, the figure is -0.0871; as for RRIRWRPPRLPRPRPRPCIEPRP, -0.0674; as for RRIRPRPPRLPRPRPRPTEWPRP, 0.0519.
The figure for RRIRWRPPRLPRPRPRPYWSPRP is -0.295; for RRIRGRPPRLPRPRPRPLIEPRP it is 0.801.
In the case of RRIRVRPPRLPRPRPRPTNGPRP, the “shrunken log2 fold change” value was 0.239.
As for RRIRGRPPRLPRPRPRPVLYPRP, the figure is 0.069; as for RRIRKRPPRLPRPRPRPKMIPRP, -0.0764; as for RRIRSRPPRLPRPRPRPAVSPRP, 0.105.
Regarding RRIRKRPPRLPRPRPRPPFPPRP, the “shrunken log2 fold change” value was 0.582.
The figure for RRIRNRPPRLPRPRPRPTHVPRP is 0.216; for RRIRTRPPRLPRPRPRPFEAPRP it is 0.0368; for RRIRKRPPRLPRPRPRPMTAPRP it is 0.832.
The figure for RRIRHRPPRLPRPRPRPIQYPRP is -0.122.
For the sequence RRIRGRPPRLPRPRPRPQQAPRP, the “shrunken log2 fold change” value is -0.0245.
Regarding RRIRKRPPRLPRPRPRPRPKPRP, the “shrunken log2 fold change” value came to 1.03.
The figure for RRIRPRPPRLPRPRPRPLSVPRP is -0.121; for RRIRHRPPRLPRPRPRPRGHPRP it is -0.103; for RRIRGRPPRLPRPRPRPMMKPRP it is 0.591.
For the sequence RRIRGRPPRLPRPRPRPPIVPRP, the “shrunken log2 fold change” value turned out to be 0.0957.
On to RRIRPRPPRLPRPRPRPIESPRP, for which the “shrunken log2 fold change” value is -0.252.
The figure for RRIRWRPPRLPRPRPRPNPTPRP is -0.0571; for RRIRGRPPRLPRPRPRPNHYPRP it is -0.416; for RRIRHRPPRLPRPRPRPCNSPRP it is -0.0938.
The figure for RRIRFRPPRLPRPRPRPDHSPRP is -0.0664; for RRIRLRPPRLPRPRPRPFTFPRP it is 0.0545; for RRIRLRPPRLPRPRPRPHMKPRP it is -0.024.
Regarding RRIRYRPPRLPRPRPRPFVTPRP, the “shrunken log2 fold change” value was -0.156.
Regarding RRIRSRPPRLPRPRPRPHYSPRP, the “shrunken log2 fold change” value was -0.596.
RRIRIRPPRLPRPRPRPRGYPRP: the “shrunken log2 fold change” value is -0.794.
Consider RRIRYRPPRLPRPRPRPPPQPRP, for which the “shrunken log2 fold change” value turned out to be 0.776.
As for RRIRGRPPRLPRPRPRPDKRPRP, the figure is 0.767; as for RRIRVRPPRLPRPRPRPSARPRP, 0.275.
Take RRIRYRPPRLPRPRPRPLLYPRP: the “shrunken log2 fold change” value is -0.94.
The figure for RRIRIRPPRLPRPRPRPGNAPRP is -0.0762; for RRIRNRPPRLPRPRPRPNDLPRP it is -0.0167.
As for RRIRSRPPRLPRPRPRPYDHPRP, the “shrunken log2 fold change” value is -0.795.

These data come from the supplement of paper PMC9112550, “Optimization of the antimicrobial peptide Bac7 by deep mutational scanning” (BMC Biology, 2022).
